Experimental data published in the Human Domainome abundance scans (Beltran et al. 2025).
± gives the uncertainty stated by the source.

B1: Glucocorticoid receptor, residues 419 to 494; numbered along this chain, P04150 (parent)
chain: KLCLVCSDEASGCHYGVLTCGSCKVFFKRAVEGQHNYLCAGRNDCIIDKIRRKNCPACRYRKCLQAGMNLEARKTK
B2: E3 ubiquitin-protein ligase NEDD4-like, residues 539 to 589; numbered along this chain, Q96PU5 (parent)
chain: KTSLNPNDLGPLPPGWEERIHLDGRTFYIDHNSKITQWEDPRLQNPAITGP

Variants of: B1
Test: abundance fitness (aPCA) (normalised: wild type 0, dead -1); higher = more abundant; growth selection in yeast, the domain comes from the species named
Details: Homo sapiens

Variant	abundance fitness
L4R	0.017 ± 0.029
L4M	0.001 ± 0.042
L4P	-0.098 ± 0.046
L4A	-0.096 ± 0.043
L4S	-0.026 ± 0.039
L4Q	0.047 ± 0.045
L4G	-0.03 ± 0.032
L4F	-0.024 ± 0.065
L4W	-0.068 ± 0.041
L4E	0.024 ± 0.046
L4K	0.109 ± 0.044
L4H	-0.141 ± 0.053
L4V	-0.052 ± 0.035
L4T	0.004 ± 0.04
L4D	0.035 ± 0.07
L4Y	-0.029 ± 0.062
L4N	-0.01 ± 0.047
L4C	0.016 ± 0.049
L2N	0.092 ± 0.14
L2P	-0.39 ± 0.068
L2S	-0.023 ± 0.037
L2Y	0.14 ± 0.065

Variant	abundance fitness
L2K	0.063 ± 0.045
L2I	0.114 ± 0.075
L2C	-0.068 ± 0.05
L2F	0.069 ± 0.058
L2D	-0.045 ± 0.066
L2R	0.032 ± 0.035
L2G	-0.017 ± 0.033
L2M	-0.024 ± 0.057
L2E	0.049 ± 0.037
L2V	-0.02 ± 0.031
L2A	0.056 ± 0.035
L2H	-0.002 ± 0.091
L2Q	0.029 ± 0.062
V5T	-0.742 ± 0.11
V5F	-0.874 ± 0.24
V5H	-0.848 ± 0.33
V5K	-1.15 ± 0.32
V5W	-0.952 ± 0.14
V5Y	-0.631 ± 0.19
V5C	-0.749 ± 0.15
V5N	-0.703 ± 0.23
V5E	-0.96 ± 0.18

Variant	abundance fitness
V5P	-1.1 ± 0.23
V5L	-0.611 ± 0.064
V5I	-0.007 ± 0.051
V5M	-0.681 ± 0.095
V5G	-0.732 ± 0.076
V5S	-1.03 ± 0.17
V5R	-0.669 ± 0.077
K1E	-0.048 ± 0.054
K1T	-0.324 ± 0.062
K1H	-0.304 ± 0.12
K1I	-0.143 ± 0.1
K1Q	-0.293 ± 0.064
K1M	0.046 ± 0.046
K1A	-0.066 ± 0.055
K1D	-0.002 ± 0.083
K1C	-0.14 ± 0.1
K1W	-0.301 ± 0.068
K1L	-0.236 ± 0.058
K1R	-0.141 ± 0.043
K1Y	-0.101 ± 0.083
K1G	-0.123 ± 0.047
K1N	-0.12 ± 0.088

Variant	abundance fitness
K1S	-0.062 ± 0.063
C3T	-0.818 ± 0.22
C3F	-0.719 ± 0.29
C3W	-0.879 ± 0.14
C3D	-0.653 ± 0.33
C3V	-1.13 ± 0.17
C3N	-0.67 ± 0.27
C3I	-0.684 ± 0.2
C3Y	-0.764 ± 0.24
C3P	-0.84 ± 0.26
C3S	-0.728 ± 0.089
C3M	-0.763 ± 0.15
C3R	-0.771 ± 0.081
C3L	-0.918 ± 0.11
C3Q	-0.686 ± 0.16
C3E	-0.787 ± 0.12
C3K	-0.823 ± 0.18
C3H	-0.737 ± 0.44
C6E	-0.941 ± 0.14
C6I	-0.751 ± 0.16
C6A	-0.964 ± 0.15
C6G	-0.934 ± 0.11

Variants of: B2
Test: as above
Details: Homo sapiens

Variant	abundance fitness
D40L	-0.654 ± 0.071
D40E	-0.587 ± 0.069
D40C	-0.639 ± 0.051
D40Q	-0.878 ± 0.13
D40F	-0.566 ± 0.11
D40P	-0.401 ± 0.056
N45T	-0.007 ± 0.066
N45L	-0.094 ± 0.04
N45G	-0.045 ± 0.064
N45Y	-0.157 ± 0.1
N45F	-0.634 ± 0.12
T26L	-0.136 ± 0.05
T26D	-0.635 ± 0.067
T26Q	-0.284 ± 0.056
T26F	-0.287 ± 0.08
T26I	-0.131 ± 0.098
H31K	0.11 ± 0.072
H31D	-0.601 ± 0.095
H31W	-0.428 ± 0.077
H31R	-0.156 ± 0.052
H31M	0 ± 0.043
H31T	0.065 ± 0.054
H31S	-0.08 ± 0.06
H31C	-0.149 ± 0.051
N7Y	-0.395 ± 0.099

Variant	abundance fitness
N7D	0.044 ± 0.08
N7Q	-0.137 ± 0.08
N7H	-0.146 ± 0.059
N7T	-0.007 ± 0.042
N7P	-0.05 ± 0.084
N7W	-0.4 ± 0.056
H21R	-0.149 ± 0.064
H21A	0.102 ± 0.062
H21G	0.166 ± 0.046
H21W	-0.051 ± 0.077
H21L	-0.289 ± 0.064
H21F	-0.439 ± 0.11
R25S	-0.063 ± 0.04
R25W	-0.72 ± 0.064
R25P	-0.558 ± 0.049
R25E	-0.198 ± 0.052
R25Y	-0.569 ± 0.047
S3I	-0.162 ± 0.11
S3K	-0.264 ± 0.08
S3G	-0.353 ± 0.041
S3D	-0.085 ± 0.064
K1R	-0.12 ± 0.097
K1D	-0.201 ± 0.12
K1T	-0.328 ± 0.055
K1L	-0.313 ± 0.045

Variant	abundance fitness
K1H	-0.704 ± 0.28
K1W	-1.08 ± 0.2
P11E	-0.044 ± 0.067
P11H	-0.586 ± 0.12
P11G	-0.19 ± 0.055
P13D	-0.322 ± 0.095
P13I	-0.933 ± 0.14
P13A	-0.495 ± 0.066
I35F	-0.16 ± 0.086
I35Y	-0.291 ± 0.091
P6R	0.015 ± 0.054
P6K	0.146 ± 0.091
Y28L	-0.703 ± 0.066
Y28R	-0.536 ± 0.061
Y28V	-0.696 ± 0.054
N5Q	-0.267 ± 0.085
N5F	-0.135 ± 0.054
N5D	-0.407 ± 0.054
N5K	-0.247 ± 0.072
N5L	-0.212 ± 0.055
N5V	-0.075 ± 0.061
N5P	-0.487 ± 0.062
N5S	-0.123 ± 0.049
N5T	-0.203 ± 0.057
W38H	-0.121 ± 0.049

Variant	abundance fitness
W38T	0.058 ± 0.05
W38G	-0.249 ± 0.04
W38V	-0.146 ± 0.041
W38K	-0.029 ± 0.059
Q37H	0.068 ± 0.11
Q37A	-0.443 ± 0.065
Q37K	-0.357 ± 0.059
Q37W	-0.564 ± 0.065
P41R	-0.758 ± 0.057
P41G	-0.742 ± 0.049
P41F	-1.1 ± 0.1
P41H	-1.08 ± 0.26
P41C	-0.672 ± 0.12
P41I	-1.28 ± 0.13
P41E	-0.718 ± 0.082
R42T	-0.71 ± 0.053
R42W	-1.18 ± 0.087
R42S	-0.661 ± 0.053
F27T	-0.089 ± 0.065
F27Q	0.042 ± 0.084
F27W	-0.346 ± 0.059
F27R	-0.163 ± 0.046
F27V	-0.188 ± 0.045
G50Q	-0.351 ± 0.2
G50L	0.118 ± 0.08

Variant	abundance fitness
G50P	-0.213 ± 0.17
L12H	-0.863 ± 0.17
L12M	-0.121 ± 0.05
L12Y	-0.788 ± 0.14
L12C	-0.824 ± 0.12
L12W	-0.72 ± 0.053
L12Q	-0.773 ± 0.1
Q44E	0.074 ± 0.053
Q44V	-0.114 ± 0.05
Q44H	-0.155 ± 0.059
Q44I	-0.016 ± 0.092
Q44R	-0.039 ± 0.041
E39K	-0.216 ± 0.084
E39N	-0.009 ± 0.076
E39Y	-0.412 ± 0.073
E39I	-0.251 ± 0.086
E39G	-0.183 ± 0.056
E39W	-0.456 ± 0.074
E39C	-0.194 ± 0.086
E39H	-0.153 ± 0.07
E39S	-0.1 ± 0.053
E39V	-0.233 ± 0.051
L22V	0.089 ± 0.043
L22S	0.154 ± 0.054
L22Y	0.07 ± 0.1

Variant	abundance fitness
L22M	0.013 ± 0.047
T2H	-0.385 ± 0.15
T2K	-0.066 ± 0.072
T2N	0.374 ± 0.11
T2W	-0.699 ± 0.062
T2Q	-0.024 ± 0.096
T2G	-0.308 ± 0.056
T2R	-0.365 ± 0.069
I48F	-0.306 ± 0.43
P14T	-0.118 ± 0.068
P14Y	-0.066 ± 0.098
P14N	-0.355 ± 0.12
P14M	-0.256 ± 0.076
P14Q	-0.17 ± 0.11
P14F	-0.066 ± 0.091
P14C	-0.1 ± 0.068
P14I	-0.227 ± 0.066
G10L	-0.429 ± 0.043
G10T	-0.15 ± 0.074
G10R	-0.263 ± 0.056
G10D	-0.24 ± 0.058
G10A	-0.076 ± 0.041
G10N	0.139 ± 0.092
G10Y	-0.571 ± 0.12
P51G	0.13 ± 0.21

Variant	abundance fitness
P51S	-0.336 ± 0.12
E17Q	-0.361 ± 0.1
E17K	-0.571 ± 0.051
E17L	-0.856 ± 0.07
E17Y	-0.986 ± 0.14
S33R	0.056 ± 0.048
S33K	0.05 ± 0.069
S33T	0.066 ± 0.061
S33C	-0.153 ± 0.078
S33G	-0.344 ± 0.047
S33V	-0.385 ± 0.044
S33H	0.098 ± 0.079
N32L	-0.181 ± 0.06
N32P	-0.594 ± 0.096
N32C	-0.312 ± 0.066
N32Y	-0.24 ± 0.1
N32K	-0.011 ± 0.053
G24N	-0.639 ± 0.12
G24Q	-0.705 ± 0.13
G24K	-0.53 ± 0.05
G24L	-0.938 ± 0.077
G24F	-1.35 ± 0.22
A47C	-0.049 ± 0.074
A47Q	0.193 ± 0.083
A47E	-0.002 ± 0.068

Variant	abundance fitness
A47T	-0.056 ± 0.065
A47W	-0.296 ± 0.055
A47R	0.004 ± 0.053
A47S	-0.04 ± 0.068
D8Q	-0.189 ± 0.053
L4W	-0.283 ± 0.045
L4A	-0.205 ± 0.046
L4H	-0.242 ± 0.1
L4N	-0.295 ± 0.094
L4V	-0.139 ± 0.044
T36G	-0.224 ± 0.048
T36R	-0.291 ± 0.05
T36W	-0.491 ± 0.056
T36C	0.086 ± 0.07
G15Y	-0.53 ± 0.13
G15F	-0.491 ± 0.098
G15T	-0.526 ± 0.065
E18Y	-0.417 ± 0.12
E18Q	0 ± 0.093
E18M	-0.444 ± 0.094
W16P	-0.385 ± 0.081
W16Y	-0.41 ± 0.098
P46Y	-0.317 ± 0.11
P46N	-0.263 ± 0.11
P46H	-0.105 ± 0.096

Variant	abundance fitness
P46C	-0.098 ± 0.046
P46W	-0.249 ± 0.069
R19S	-0.132 ± 0.066
R19P	-0.969 ± 0.15
R19C	-0.138 ± 0.047
R19F	-0.28 ± 0.088
R19I	-0.181 ± 0.072
D23C	-0.135 ± 0.057
D23L	-0.548 ± 0.068
D23G	-0.388 ± 0.056
K34C	-0.223 ± 0.053
K34H	-0.087 ± 0.099
K34F	-0.513 ± 0.089
K34W	-0.547 ± 0.051
K34I	-0.875 ± 0.2
K34M	-0.105 ± 0.083
I20M	-0.131 ± 0.076
I20H	-0.125 ± 0.11
I20N	-0.467 ± 0.12
I20V	0.093 ± 0.048
I20C	0.192 ± 0.096
T49G	-0.045 ± 0.054
T49N	-0.313 ± 0.13
T49K	-0.267 ± 0.095
T49A	-0.121 ± 0.059

Variant	abundance fitness
T49E	-0.144 ± 0.091
T49M	-0.091 ± 0.055
D30G	-0.617 ± 0.049
D30S	-0.32 ± 0.053
D30C	-0.166 ± 0.061
D30V	-1.03 ± 0.049
D30N	0.166 ± 0.049
L9F	-0.271 ± 0.31
L9S	-0.237 ± 0.36
L43A	0.007 ± 0.071
L43E	-0.042 ± 0.073
L43N	-0.183 ± 0.084
L43G	-0.086 ± 0.05
L43R	-0.116 ± 0.056
L43H	-0.131 ± 0.12
I29R	-0.271 ± 0.046
I29D	-0.422 ± 0.082
I29G	-0.482 ± 0.042
I29H	-0.782 ± 0.17
I29Q	-0.176 ± 0.051
I29N	-0.378 ± 0.11
